From US20240016931A1 (JIANGSU HENGRUI PHARMACEUTICALS, published 2024) come the findings set out here.

One may read the EC50 as the midpoint of the concentration-response curve.

The target in the experiment is T1, His-tagged human TSLP antigen (huTSLP-his) (human).
T1 construct: Secreted from HEK293E and purified on nickel; whole entry named; also called Human TSLP-his
Nature of the experiment: ELISA, coated huTSLP-his.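 Further: binding of antibodies to plate-bound TSLP read as absorbance at 450 nm after TMB colour development, EC50 derived from binding curves.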 A general note: ELISA stands for enzyme-linked immunosorbent assay.

Procedure: The plate was incubated at 4° C. overnight. After the liquid was discarded, 5% skim milk (skim milk powder from Brightdairy) blocking solution diluted with PBS was added at 200 μL/well, and the plate was incubated in an incubator at 37° C. for 2 h for blocking. After the blocking, the blocking solution was discarded, and the plate was washed 3 times with a PBST buffer (PBS containing 0.1% (v/v) tween-20, pH 7.4). […] After the incubation, the plate was washed 3 times with PBST. […] After the plate was washed 6 times with PBST, a TMB chromogenic substrate (KPL, 52-00-03) was added at 50 μL/well, and the plate was incubated at room temperature for 10-15 min. Then, 1 M H₂SO₄ was added at 50 μL/well to stop the reaction. The absorbance at 450 nm was read with a NOVOStar microplate reader, and the EC₅₀ values for the binding of the TSLP antibodies to TSLP were calculated.

B1: hu119-21 (antibody, human IgG1, kappa)
heavy: EVQLVQSGAEVKKPGSSVKVSCKASGGTFSTYNMHWVRQAPGQGLEWIGAIYPGNGETSYNQKFKDRATLTVDKSTRTAYMELSSLRSEDTAVYYCAREDDYGEGYFDVWGQGTTVTVSSASTKGPSVFPLAPSSKSTSGGTAALGCLVKDYFPEPVTVSWNSGALTSGVHTFPAVLQSSGLYSLSSVVTVPSSSLGTQTYICNVNHKPSNTKVDKKVEPKSCDKTHTCPPCPAPELLGGPSVFLFPPKPKDTLYITREPEVTCVVVDVSHEDPEVKFNWYVDGVEVHNAKTKPREEQYNSTYRVVSVLTVLHQDWLNGKEYKCKVSNKALPAPIEKTISKAKGQPREPQVYTLPPSRDELTKNQVSLTCLVKGFYPSDIAVEWESNGQPENNYKTTPPVLDSDGSFFLYSKLTVDKSRWQQGNVFSCSVMHEALHNHYTQKSLSLSPGK
light: EIVLTQSPATLSLSPGERATLSCRASESVDNSGLSFMHWYQQKPGQPPRLLLYRASNLGSGIPARFSGSGSGTDFTLTISSLEPEDFAVYYCQQINTDPLTFGQGTKLEIKRTVAAPSVFIFPPSDEQLKSGTASVVCLLNNFYPREAKVQWKVDNALQSGNSQESVTEQDSKDSTYSLSSTLTLSKADYEKHKVYACEVTHQGLSSPVTKSFNRGEC
notes: IgG1-YTE, kappa
As for B1, the EC50 was 0.399 nM.

B2: hu119-23 (antibody, human IgG1, kappa, V domains shown)
VH: EVQLVQSGAEVKKPGSSVKVSCKASGFTFSTYNMHWVKHAPGQGLEWIGAIYPGNGETSYNQKFKDRATLTVDKSTSTAYMELSSLRSEDTAVYYCAREDDYGEGYFDVWGQGTTVTVSS
VL: DIVLTQSPATLSLSPGERATLSCRASESVDNSGLSFMHWYQQKPGQPPRLLLYRASNLGSGIPARFSGSGSGTDFTLTISSLEPEDFAVYYCQQINTDPLTFGQGTKLEIKR
notes: IgG1-YTE, kappa
In the case of B2, a half-maximal response (EC50) required 0.34 nM.

B3: hu119-22 (antibody, human IgG1, kappa)
heavy: EAQLVQSGAEVKKPGSSVKVSCKASGFTFSTYNMHWVRQAPGQGLEWIGAIYPGNGETSYNQKFKDRATLTVDKSTRTAYMELSSLRSEDTAVYYCAREDDYGEGYFDVWGQGTTVTVSSASTKGPSVFPLAPSSKSTSGGTAALGCLVKDYFPEPVTVSWNSGALTSGVHTFPAVLQSSGLYSLSSVVTVPSSSLGTQTYICNVNHKPSNTKVDKKVEPKSCDKTHTCPPCPAPELLGGPSVFLFPPKPKDTLYITREPEVTCVVVDVSHEDPEVKFNWYVDGVEVHNAKTKPREEQYNSTYRVVSVLTVLHQDWLNGKEYKCKVSNKALPAPIEKTISKAKGQPREPQVYTLPPSRDELTKNQVSLTCLVKGFYPSDIAVEWESNGQPENNYKTTPPVLDSDGSFFLYSKLTVDKSRWQQGNVFSCSVMHEALHNHYTQKSLSLSPGK
light: EIVLTQSPATLSLSPGERATLSCRASESVDNSGLSFMHWYQQKPGQPPRLLLYRASNLGSGIPARFSGSGSGTDFTLTISSLEPEDFAVYYCQQINTDPLTFGQGTKLEIKRTVAAPSVFIFPPSDEQLKSGTASVVCLLNNFYPREAKVQWKVDNALQSGNSQESVTEQDSKDSTYSLSSTLTLSKADYEKHKVYACEVTHQGLSSPVTKSFNRGEC
notes: IgG1-YTE, kappa
In the case of B3, it took 0.351 nM to reach a half-maximal effect (EC50).

B4: hu119-24 (antibody, human IgG1, kappa)
heavy: EVQLVQSGAEVKKPGSSVKVSCKASGGTFSTYNMHWVRQAPGQGLEWIGAIYPGNGETSYNQKFKDRATLTVDKSTSTAYMELSSLRSEDTAVYYCAREDDYGEGYFDVWGQGTTVTVSSASTKGPSVFPLAPSSKSTSGGTAALGCLVKDYFPEPVTVSWNSGALTSGVHTFPAVLQSSGLYSLSSVVTVPSSSLGTQTYICNVNHKPSNTKVDKKVEPKSCDKTHTCPPCPAPELLGGPSVFLFPPKPKDTLYITREPEVTCVVVDVSHEDPEVKFNWYVDGVEVHNAKTKPREEQYNSTYRVVSVLTVLHQDWLNGKEYKCKVSNKALPAPIEKTISKAKGQPREPQVYTLPPSRDELTKNQVSLTCLVKGFYPSDIAVEWESNGQPENNYKTTPPVLDSDGSFFLYSKLTVDKSRWQQGNVFSCSVMHEALHNHYTQKSLSLSPGK
light: DIVLTQSPATLSLSPGERATLSCRASESVDNSGLSFMHWYQQKPGQPPRLLLYRASNLGSGIPARFSGSGSGTDFTLTISSLEPEDFAVYYCQQINTDPLTFGQGTKLEIKRTVAAPSVFIFPPSDEQLKSGTASVVCLLNNFYPREAKVQWKVDNALQSGNSQESVTEQDSKDSTYSLSSTLTLSKADYEKHKVYACEVTHQGLSSPVTKSFNRGEC
notes: IgG1-YTE, kappa
As for B4, a half-maximal effect (EC50) was put at 0.345 nM.
